Source: patent US20250339504A1 (published 2025)

T1: GPC3 peptide on HLA-A*24:02 (human)
T1 peptide: EYILSLEEL

T2: GPC3 peptide on HLA-A2 (human)
T2 peptide: FVGEFFTDV

T3: FOXM1 peptide on HLA-A*24:02 (human)
T3 peptide: IYTWIEDHF

B1: e1D8 (TCR, V domains shown)
Valpha: GEDVEQSLFLSVREGDSSVINCTYTDSSSTYLYWYKQEPGAGLQLLTYIFSNMDMKQDQRLTVLLNKKDKHLSLRIADTQTGDSAIYFCAENHSSASKIIFGSGTRLSIRP
Vbeta: DSGVTQTPKHLITATGQRVTLRCSPRSGDLSVYWYQQSLDQGLQFLIQYYNGEERAKGNILERFSAQQFPDLHSELNLSSLELGDSALYFCASSVGSGRNYEQYFGPGTRLTVT
B2: 52B11 (TCR, V domains shown)
Valpha: QKEVEQDPGPLSVPEGAIVSLNCTYSNSAFQYFMWYRQYSRKGPELLMYTYSSGNKEDGRFTAQVDKSSKYISLFIRDSQPSDSATYLCAQRIVMEYGNKLVFGAGTILRVKS
Vbeta: EPEVTQTPSHQVTQMGQEVILRCVPISNHLYFYWYRQILGQKVEFLVSFYNNEISEKSEIFDDQFSVERPDGSNFTLKIRSTKLEDSAMYFCASSEGAEAFFGQGTRLTVV
B3: i2B7 (TCR, V domains shown)
Valpha: AQSVAQPEDQVNVAEGNPLTVKCTYSVSGNPYLFWYVQYPNRGLQFLLKYITGDNLVKGSYGFEAEFNKSQTSFHLKKPSALVSDSALYFCAVNPTGGGNKLTFGTGTQLKVEL
Vbeta: DARVTQTPRDKVTEMGQEVTMRCQPILGHNTVFWYRQTMMQGLELLAYFRNRAPLDDSGMPKDRFSAEMPDATLATLKIQPSEPRDSAVYFCASGLGGNQPQHFGDGTRLSIL
B4: ⑨5C6 (TCR, V domains shown)
Valpha: AQSVTQPDIHITVSEGASLELRCNYSYGATPYLFWYVQSPGQGLQLLLKYFSGDTLVQGIKGFEAEFKRSQSSFNLRKPSVHWSDAAEYFCAVGSPSGYSTLTFGKGTMLLVSP
Vbeta: EAQVTQNPRYLITVTGKKLTVTCSQNMNHEYMSWYRQDPGLGLRQIYYSMNVEVTDKGDVPEGYKVSRKEKRNFPLILESPSPNQTSLYFCASSPTRFYEQYFGPGTRLTVT
B5: ⑧2D9 (TCR, V domains shown)
Valpha: QKEVEQNSGPLSVPEGAIASLNCTYSDRGSQSFFWYRQYSGKSPELIMFIYSNGDKEDGRFTAQLNKASQYVSLLIRDSQPSDSATYLCAVNMDGNNRLAFGKGNQVVVIP
Vbeta: DAGITQSPRHKVTETGTPVTLRCHQTENHRYMYWYRQDPGHGLRLIHYSYGVKDTDKGEVSDGYSVSRSKTEDFLLTLESATSSQTSVYFCASVYGSEAFFGQGTRLTVV
B6: 1F5 (TCR, V domains shown)
Valpha: EDQVTQSPEALRLQEGESSSLNCSYTVSGLRGLFWYRQDPGKGPEFLFTLYSAGEEKEKERLKATLTKKESFLHITAPKPEDSATYLCAASNSGGSNYKLTFGKGTLLTVNP
Vbeta: DSGVTQTPKHLITATGQRVTLRCSPRSGDLSVYWYQQSLDQGLQFLIQYYNGEERAKGNILERFSAQQFPDLHSELNLSSLELGDSALYFCASSVDGKGTQYFGPGTRLLVL
B7: (21)1D5 (TCR, V domains shown)
Valpha: QKEVEQDPGPLSVPEGAIVSLNCTYSNSAFQYFMWYRQYSRKGPELLMYTYSSGNKEDGRFTAQVDKSSKYISLFIRDSQPSDSATYLCAMSGHFNKFYFGSGTKLNVKP
Vbeta: KAGVTQTPRYLIKTRGQQVTLSCSPISGHRSVSWYQQTPGQGLQFLFEYFSETQRNKGNFPGRFSGRQFSNSRSEMNVSTLELGDSALYLCASSLRAGELFFGEGSRLTVL
B8: F5 (TCR, V domains shown)
Valpha: KDQVFQPSTVASSEGAVVEIFCNHSVSNAYNFFWYLHFPGCAPRLLVKGSKPSQQGRYNMTYERFSSSLLILQVREADAAVYYCAVNQAGTALIFGKGTTLSVSS
Vbeta: DTEVTQTPKHLVMGMTNKKSLKCEQHMGHRAMYWYKQKAKKPPELMFVYSYEKLSINESVPSRFSPECPNSSLLNLHLHALQPEDSALYLCASSQERTSGRSADTQYFGPGTRLTVL
B9: ②1E7 (TCR, V domains shown)
Valpha: AQSVSQHNHHVILSEAASLELGCNYSYGGTVNLFWYVQYPGQHLQLLLKYFSGDPLVKGIKGFEAEFIKSKFSFNLRKPSVQWSDTAEYFCAVRHGGTGTASKLTFGTGTRLQVTL
Vbeta: GAVVSQHPSWVICKSGTSVKIECRSLDFQATTMFWYRQFPKQSLMLMATSNEGSKATYEQGVEKDKFLINHASLTLSTLTVTSAHPEDSSFYICSARALGGYTFGSGTRLTVV
B10: G9 (TCR, V domains shown)
Valpha: KQEVTQIPAALSVPEGENLVLNCSFTDSAIYNLQWFRQDPGKGLTSLLLIQSSQREQTSGRLNASLDKSSGRSTLYIAASQPGDSATYLCAVTRRALTFGSGTRLQVQP
Vbeta: KAGVTQTPRYLIKTRGQQVTLSCSPISGHRSVSWYQQTPGQGLQFLFEYFSETQRNKGNFPGRFSGRQFSNSRSEMNVSTLELGDSALYLCASSVTSGRTHTDTQYFGPGTRLTVL
B11: eD3 (TCR, V domains shown)
Valpha: RKEVEQDPGPFNVPEGATVAFNCTYSNSASQSFFWYRQDCRKEPKLLMSVYSSGNEDGRFTAQLNRASQYISLLIRDSKLSDSATYLCVVKGGNNFNKFYFGSGTKLNVKP
Vbeta: NAGVTQTPKFQVLKTGQSMTLQCAQDMNHNSMYWYRQDPGMGLRLIYYSASEGTTDKGEVPNGYNVSRLNKREFSLRLESAAPSQTSVYFCASSHRVNSNQPQHFGDGTRLSIL
B12: i2F3 (TCR, V domains shown)
Valpha: RKEVEQDPGPFNVPEGATVAFNCTYSNSASQSFFWYRQDCRKEPKLLMSVYSSGNEDGRFTAQLNRASQYISLLIRDSKLSDSATYLCVVNKSWGKLQFGAGTQVVVTP
Vbeta: DSGVTQTPKHLITATGQRVTLRCSPRSGDLSVYWYQQSLDQGLQFLIQYYNGEERAKGNILERFSAQQFPDLHSELNLSSLELGDSALYFCASSAGTSGNEQFFGPGTRLTVL
B13: (46)2A6 (TCR, V domains shown)
Valpha: RKEVEQDPGPFNVPEGATVAFNCTYSNSASQSFFWYRQDCRKEPKLLMSVYSSGNEDGRFTAQLNRASQYISLLIRDSKLSDSATYLCKISGGYNKLIFGAGTRLAVHP
Vbeta: DSGVTQTPKHLITATGQRVTLRCSPRSGDLSVYWYQQSLDQGLQFLIQYYNGEERAKGNILERFSAQQFPDLHSELNLSSLELGDSALYFCASSVGGGLGTEAFFGQGTRLTVV
B14: il2G6, TRA of SEQ ID NO: 129 (TCR, V domains shown)
Valpha: LAKTTQPISMDSYEGQEVNITCSHNNIATNDYITWYQQFPSQGPRFIIQGYKTKVTNEVASLFIPADRKSSTLSLPRVSLSDTAVYYCLVGHSGNTPLVFGKGTRLSVIA
Vbeta: DSGVTQTPKHLITATGQRVTLRCSPRSGDLSVYWYQQSLDQGLQFLIQYYNGEERAKGNILERFSAQQFPDLHSELNLSSLELGDSALYFCASSVGGGAGNTIYFGEGSWLTVV
B15: i7E6, TRA of SEQ ID NO: 138 (TCR, V domains shown)
Valpha: AQRVTQPEKLLSVFKGAPVELKCNYSYSGSPELFWYVQYSRQRLQLLLRHISRESIKGFTADLNKGETSFHLKKPFAQEEDSAMYYCALANQAGTALIFGKGTTLSVSS
Vbeta: DSGVTQTPKHLITATGQRVTLRCSPRSGDLSVYWYQQSLDQGLQFLIQYYNGEERAKGNILERFSAQQFPDLHSELNLSSLELGDSALYFCASSPGGGASSPLHFGNGTRLTVT
B16: eC7 (TCR, V domains shown)
Valpha: SQQGEEDPQALSIQEGENATMNCSYKTSINNLQWYRQNSGRGLVHLILIRSNEREKHSGRLRVTLDTSKKSSSLLITASRAADTASYFCAVRYSSASKIIFGSGTRLSIRP
Vbeta: DSGVTQTPKHLITATGQRVTLRCSPRSGDLSVYWYQQSLDQGLQFLIQYYNGEERAKGNILERFSAQQFPDLHSELNLSSLELGDSALYFCASSAGGGSNNEQFFGPGTRLTVL
B17: eC1 (TCR, V domains shown)
Valpha: GESVGLHLPTLSVQEGDNSIINCAYSNSASDYFIWYKQESGKGPQFIIDIRSNMDKRQGQRVTVLLNKTVKHLSLQIAATQPGDSAVYFCAGRTGFQKLVFGTGTRLLVSP
Vbeta: DSGVTQTPKHLITATGQRVTLRCSPRSGDLSVYWYQQSLDQGLQFLIQYYNGEERAKGNILERFSAQQFPDLHSELNLSSLELGDSALYFCASSVGGGLYNEQFFGPGTRLTVL
B18: il2G6, TRA of SEQ ID NO: 130 (TCR, V domains shown)
Valpha: RKEVEQDPGPFNVPEGATVAFNCTYSNSASQSFFWYRQDCRKEPKLLMSVYSSGNEDGRFTAQLNRASQYISLLIRDSKLSDSATYLCVVNTGRRALTFGSGTRLQVQP
Vbeta: DSGVTQTPKHLITATGQRVTLRCSPRSGDLSVYWYQQSLDQGLQFLIQYYNGEERAKGNILERFSAQQFPDLHSELNLSSLELGDSALYFCASSVGGGAGNTIYFGEGSWLTVV
B19: i6E9 (TCR, V domains shown)
Valpha: RKEVEQDPGPFNVPEGATVAFNCTYSNSASQSFFWYRQDCRKEPKLLMSVYSSGNEDGRFTAQLNRASQYISLLIRDSKLSDSATYLCVVNLGNYGQNFVFGPGTRLSVLP
Vbeta: DSGVTQTPKHLITATGQRVTLRCSPRSGDLSVYWYQQSLDQGLQFLIQYYNGEERAKGNILERFSAQQFPDLHSELNLSSLELGDSALYFCASSVGGGLSNEQFFGPGTRLTVL
B20: i7E6, TRA of SEQ ID NO: 139 (TCR, V domains shown)
Valpha: KQEVTQIPAALSVPEGENLVLNCSFTDSAIYNLQWFRQDPGKGLTSLLLIQSSQREQTSGRLNASLDKSSGRSTLYIAASQPGDSATYLCAVKRRAAGNKLTFGGGTRVLVKP
Vbeta: DSGVTQTPKHLITATGQRVTLRCSPRSGDLSVYWYQQSLDQGLQFLIQYYNGEERAKGNILERFSAQQFPDLHSELNLSSLELGDSALYFCASSPGGGASSPLHFGNGTRLTVT
B21: i3C2 (TCR, V domains shown)
Valpha: GQNIDQPTEMTATEGAIVQINCTYQTSGFNGLFWYQQHAGEAPTFLSYNVLDGLEEKGRFSSFLSRSKGYSYLLLKELQMKDSASYLCAVRVWKAAGNKLTFGGGTRVLVKP
Vbeta: GAVVSQHPSWVICKSGTSVKIECRSLDFQATTMFWYRQFPKQSLMLMATSNEGSKATYEQGVEKDKFLINHASLTLSTLTVTSAHPEDSSFYICSARRLAGGGNEQFFGPGTRLTVL

Target: T1, GPC3 peptide on HLA-A*24:02
Experiment: cytokine release

Q: Does B1 bind?
A: Result: recognises

Target: T2, GPC3 peptide on HLA-A2
Experiment: multimer staining

Q: Does B2 bind?
A: Result: recognises

Q: Does B3 bind?
A: Result: recognises

Q: Does B4 bind?
A: Result: recognises

Q: Does B5 bind?
A: Result: recognises

Target: T3, FOXM1 peptide on HLA-A*24:02
Experiment: multimer staining

Q: Does B6 bind?
A: Result: recognises

Q: Does B7 bind?
A: Result: recognises

Q: Does B8 bind?
A: Result: recognises

Q: Does B9 bind?
A: Result: recognises

Target: T1, GPC3 peptide on HLA-A*24:02
Experiment: multimer staining

Q: Does B10 bind?
A: Result: recognises

Q: Does B11 bind?
A: Result: recognises

Q: Does B12 bind?
A: Result: recognises

Q: Does B13 bind?
A: Result: recognises

Q: Does B14 bind?
A: Result: recognises

Q: Does B15 bind?
A: Result: recognises

Q: Does B16 bind?
A: Result: recognises

Q: Does B17 bind?
A: Result: recognises

Q: Does B18 bind?
A: Result: recognises

Q: Does B19 bind?
A: Result: recognises

Q: Does B20 bind?
A: Result: recognises

Q: Does B21 bind?
A: Result: recognises
